Publication PMC4173072, “A truncated form of the Carbon catabolite repressor 1 increases cellulase production in Trichoderma reesei”

Target: CREI-96 (truncated Carbon catabolite repressor 1, Cre1-96) (Trichoderma reesei Rut-C30, UniProt G0RB08 1-96)
Experiment: competition; 2000 nM protein; 50-, 100-, 200-fold competitor against N1; bands unchanged; GST elution buffer, 10 min at 22 °C; non-denaturing PAGE; salt and pH not stated
Settings: protein: recombinant; tags: GST fusion (37 kDa), thrombin-cleaved before use; label: unlabelled; blunt

Sequence of CREI-96 (truncated Carbon catabolite repressor 1, Cre1-96) (G0RB08 entry or part of it): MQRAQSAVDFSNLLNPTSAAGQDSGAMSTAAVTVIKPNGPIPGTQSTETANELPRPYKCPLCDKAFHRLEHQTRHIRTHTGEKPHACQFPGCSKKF

B1: mutated cold competitor RG221/RG222 (dsDNA)
DNA 1: CCAACGGCTTGTTGGGTTGCAGAAGCAACGGCAAAGCCCAACTTCCCAACGTTTGTTTCT
DNA 2: AGAAACAAACGTTGGGAAGTTGGGCTTTGCCGTTGCTTCTGCAACCCAACAAGCCGTTGG
B1: no binding.
